This assay has as its target interferon receptor on MCF-7 breast carcinoma cells. Briefly: cell-based or functional assay.

Residue numbers refer to the chain shown, from its start. In names and notes the source's numbering stands.

B1: natural wild-type IFNα-5 protein (ligand)
chain: CDLPQTHSLSNRRTLMIMAQMGRISPFSCLKDRHDFGFPQEEFDGNQFQKAQAISVLHEMIQQTFNLFSTKDSSATWDETLLDKFYTELYQQLNDLEACMMQEVGVEDTPLMNVDSILTVRKYFQRITLYLTEKKYSPCAWEVVRAEIMRSFSLSANLQERLRRKE
In the case of B1, the “EC50, stimulation of Luciferase activity (pISRE-Luc reporter gene in MCF-7 cells)” value turned out to be 5.67 pM.

B2: C122S mutated IFNα-5 (ligand)
chain: B1 chain with C99S
Regarding B2, the “EC50, stimulation of Luciferase activity (pISRE-Luc reporter gene in MCF-7 cells)” value is 93.3 pM and the “ratio of the EC50 value for the mutated protein over the EC50 value for the wild-type protein (pISRE-Luc reporter gene in MCF-7 cells)” value is 18.3 fold.
